The values that follow come from patent publication US20250277023A1 (published 2025).

Experiment [1] addresses T1, PD-L1 (on CHO-PD-L1 cells) (UniProt Q9NZQ7 19-290). The experiment can be described thus: FACS binding; Fig. 23. Background: Flow cytometry measures light scatter and fluorescence of single cells or particles in a stream.
The target in experiment [2] is T1, PD-L1 (on CHO-PD-L1 cells). The experiment can be described thus: FACS binding; Fig. 21.

T1 sequence (Q9NZQ7 19-290): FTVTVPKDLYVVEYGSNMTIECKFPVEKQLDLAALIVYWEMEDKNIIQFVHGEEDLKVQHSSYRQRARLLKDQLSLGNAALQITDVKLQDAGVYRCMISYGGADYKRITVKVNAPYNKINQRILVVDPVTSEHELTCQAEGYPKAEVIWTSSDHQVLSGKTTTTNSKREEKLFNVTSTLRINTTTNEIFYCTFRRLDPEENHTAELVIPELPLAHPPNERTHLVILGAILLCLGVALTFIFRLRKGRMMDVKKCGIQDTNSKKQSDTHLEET

B1: R1042: PD-L1_VH_IL15RA/TIGIT_VL_IL15/TIGIT_VH/PD-L1-VL (bispecific antibody)
chain 1: EVQLLESGGGLVQPGGSLRLSCAASGFTFSSYIMMWVRQAPGKGLEWVSSIYPSGGITFYADTVKGRFTISRDNSKNTLYLQMNSLRAEDTAVYYCARIKLGTVTTVDYWGQGTLVTVSSGGGGSGGGGSGGGGSGGGGSGITCPPPMSVEHADIWVKSYSLYSRERYICNSGFKRKAGTSSLTECVLNKATNVAHWTTPSLKCIRDPALVHQRPAPPSTVTTAGVTPQPESLSPSGKEPAASSPSSNNTAATTAAIVPGSQLMPSKSPSTGTTEISSHESSHGTPSQTTAKNWELTASASHQPPGVYPQGHSDTTEPRGPTIKPCPPCKCPAPNLLGGPSVFIFPPKIKDVLMISLSPIVTCVVVDVSEDDPDVQISWFVNNVEVHTAQTQTHREDYNSTLRVVSALPIQHQDWMSGKEFKCKVNNKDLPAPIERTISKPKGSVRAPQVYVLPPPEEEMTKKQVTLWCMVTDFMPEDIYVEWTNNGKTELNYDNTEPVLDSDGSYFMYSDLRVEKKNWVERNSYSCSVVHEGLHNHHTTKSFSRTPGK
chain 2: not shown
heavy: QVQLESEGGLFKPTDTLTLTCTVSGSSLSSSYMSWVRQAPGKGLEWIGIIGSNGNTYYANWAKGRFTISKTSTTVELKITSPTTEDTATYFCARGGYRTSGMDPWGPGTLVTVSSAKTTAPSVYPLAPVCGDTTGSSVTLGCLVKGYFPEPVTLTWNSGSLSSGVHTFPAVLQSDLYTLSSSVTVTSSTWPSQSITCNVAHPASSTKVDKKIEPRGPTIKPCPPCKCPAPNLLGGPSVFIFPPKIKDVLMISLSPIVTCVVVDVSEDDPDVQISWFVNNVEVHTAQTQTHREDYNSTLRVVSALPIQHQDWMSGKEFKCKVNNKDLPAPIERTISKPKGSVRAPQVYVLPPPEEEMTKKQVTLTCRVTDFMPEDIYVEWTNNGKTELNYKNTEPVLKSDGSYFMASKLRVEKKNWVERNSYSCSVVHEGLHNHHTTKSFSRTPGK
light: QSALTQPASVSGSPGQSITISCTGTSSDVGGYNYVSWYQQHPGKAPKLMIYDVSNRPSGVSNRFSGSKSGNTASLTISGLQAEDEADYYCSSYTSSSTRVFGTGTKVTVLRTDAAPTVSIFPPSSEQLTSGGASVVCFLNNFYPKDINVKWKIDGSERQNGVLNSWTDQDSKDSTYSMSSTLTLTKDEYERHNSYTCEATHKTSTSPIVKSFNRNEC
B1 came in with an EC50 in experiment [1] of 7.29 nM.

B2: R0950: PD-L1_VH_IL15RA/PD-L1_VL_IL15/TIGIT-Fab (bispecific antibody)
chain 1: EVQLLESGGGLVQPGGSLRLSCAASGFTFSSYIMMWVRQAPGKGLEWVSSIYPSGGITFYADTVKGRFTISRDNSKNTLYLQMNSLRAEDTAVYYCARIKLGTVTTVDYWGQGTLVTVSSGGGGSGGGGSGGGGSGGGGSGITCPPPMSVEHADIWVKSYSLYSRERYICNSGFKRKAGTSSLTECVLNKATNVAHWTTPSLKCIRDPALVHQRPAPPSTVTTAGVTPQPESLSPSGKEPAASSPSSNNTAATTAAIVPGSQLMPSKSPSTGTTEISSHESSHGTPSQTTAKNWELTASASHQPPGVYPQGHSDTTEPRGPTIKPCPPCKCPAPNLLGGPSVFIFPPKIKDVLMISLSPIVTCVVVDVSEDDPDVQISWFVNNVEVHTAQTQTHREDYNSTLRVVSALPIQHQDWMSGKEFKCKVNNKDLPAPIERTISKPKGSVRAPQVYVLPPPEEEMTKKQVTLWCMVTDFMPEDIYVEWTNNGKTELNYDNTEPVLDSDGSYFMYSDLRVEKKNWVERNSYSCSVVHEGLHNHHTTKSFSRTPGK
chain 2: not shown
heavy: QVQLESEGGLFKPTDTLTLTCTVSGSSLSSSYMSWVRQAPGKGLEWIGIIGSNGNTYYANWAKGRFTISKTSTTVELKITSPTTEDTATYFCARGGYRTSGMDPWGPGTLVTVSSAKTTAPSVYPLAPVCGDTTGSSVTLGCLVKGYFPEPVTLTWNSGSLSSGVHTFPAVLQSDLYTLSSSVTVTSSTWPSQSITCNVAHPASSTKVDKKIEPRGPTIKPCPPCKCPAPNLLGGPSVFIFPPKIKDVLMISLSPIVTCVVVDVSEDDPDVQISWFVNNVEVHTAQTQTHREDYNSTLRVVSALPIQHQDWMSGKEFKCKVNNKDLPAPIERTISKPKGSVRAPQVYVLPPPEEEMTKKQVTLTCRVTDFMPEDIYVEWTNNGKTELNYKNTEPVLKSDGSYFMASKLRVEKKNWVERNSYSCSVVHEGLHNHHTTKSFSRTPGK
light: DIVMTQTPASVEVAVGGTVTIKCQASQSISSYLNWYQQKPGQPPKLLIYDALKLASGVPSRFSGSGSGTEYTLTISGVESADAATYYCQQEHSVGNVDNVFGGGTEVVVKRTDAAPTVSIFPPSSEQLTSGGASVVCFLNNFYPKDINVKWKIDGSERQNGVLNSWTDQDSKDSTYSMSSTLTLTKDEYERHNSYTCEATHKTSTSPIVKSFNRNEC
Take B2: the results for the EC50 in experiment [2] and in experiment [1] were 0.571 nM and 0.903 nM, respectively.

A word on the EC50: it is the concentration needed to bring the measured effect to its halfway point.
